Data on 19 sequences can be found in the DeepSol protein solubility set.

The data set in a line: soluble on expression in E. coli; label from the status in PepcDB or PDB records.
“GAMSEAFHTHSGIGVPLRRSNVDTDQIIPAVFLKRVTRTGFEDGLFAGWRSDPAFVLNLSPFDRGSVLVAGPDFGTGSSREHAVWALMDYGFRVVISSRFGDIFRGNAGKAGLLAAEVAQDDVELLWKLIEQSPGLEITANLQDRIITAATVVLPFKIDDHSAWRLLEGLDDIALTLRKLDEIEAFEGA”: the “soluble on expression in E. coli” value is “soluble”.

Regarding “MTRQERILQLPFFENKRELAEQVLKMEREEHVYLPDQFEIKQVPPYSFAEKEAIIGRIHEFYFVSIGSDGAWKYQLFKDEMKCREFFVTLSGITDQQIAFWFNNIELLKGA”, the “soluble on expression in E. coli” value is given as “not soluble”.

For the sequence “SQDPSGDKVCRAGGEEDGEDGQHTSRVHDTEADPHHTEASSHRTEGSSHLTETSSRPSEAENGHDNSPHVNRAQDVGTQASPQGSLNSRVPVEARVVVEEAAIAPQGEQAPIIPGPSGDAATTAGSRLLEFSVTVPFRTAVEANIACRTLASNIQQQQVMVQQEFTVNDTILTVRWTTEDPVLFRTSINAFLDQLSLVVRNIPRPVFMAVFKQGRGRNN”, the “soluble on expression in E. coli” value is “soluble”.

As to “MAHHHHHHMYLCWNDTFLTSFALDTLLSKLVAEVCEKRPVSSRQVLELMREALETQKMQQWYYSETVRSFNDAVNSLSRRGFPLQMACPLYFRIPQEDGGVHELFRYGSEIAVTPNNYDHFEHMLKRYQAVVNGELSQEGYYDAVRHLLPISAHCNLLNSSYTPIINFLQECLLNPRSQWAIQSSSVWDQLGVTYAVPFAGRLFAVDPTKPVTALVSFEDANRYVEMASERCRTLSSLLTTGASLNVVRRAAAAAASPPSASSGRAAVKLAPSTIPVASSAATSEEARKWEAFEAIGLRPEVFSDMSPAEIEFWKYILRLRESPSQIHDISFHLEFGPHHMDLKENGRFIPVTRLNLNQFIEAVVAKQDEVHRYINEVALVTPTHSNASRDAGGGGEGSAGPPPPPVAASNTAAAQAMPAPQQDIKIPAQPPPRTIGSEATSPVGHAQSEAHRDNEAHLTLRDVDSTVVRSIMELRSQYQLGRLTKTELNARQLRFCLPCRDGVYNLIPNGRHIQVATGNIGIFLQYVEEEKKRVEALSGGKSEDSAARACSHAPEATTGGTGSLNVIQRDRERVYGAVEAADADAGYWTDKNVLDIWTYECTTACLLKSSMSPEEIVRQTQLQWDTNFLSRKDCPYANASEDGCVILPKDVKTYLRLLRRRLQSIRLAILDAGKCPQEPSEWDVGEWDVVNPSTPPLEFEVPASVHAIPSAPENLTMFSPTHNTGGLLAPSQSLYL”, the “soluble on expression in E. coli” value is listed as “not soluble”.

Regarding “MSLNTIYEPSSICMIRTPLLSVEFFNLFLNTEQIKYSDLQLNAQMKESILTTTFNLYCTLQEINFDGDNKKVRDAKESLLKYLIRMSTRPTPFGLLSGINLGHFVNEPTRLKVGNSIQKYVKVDGEWLYKLVSYIESIDEYYQNLKVIWNSKAHIINDRIYLNEQSAIYLNNNKDTSFSIKNSELLVFIKTTVTNNNITFSNLAEKINQEFEINDITKVKVYIHNLVSKEIIYSTIRPPLSYSDNLNYILNKLSLHNDDFVKKIREIQKLILAYEKTEIGFGEELYKDIIHHMKALFKCKNYLQIDTKIDMINNYLHQDIATNISEAAYLLWLLSRNNIGFTDLKVLHNRFIEKYGFEQLVNIKDLISDITGFGTTIFQEEETDGNNIVMLKQKFLHALRNNDEIVINEKDVESLINDNEINHYHAPMSADVYAELYLGRFYNQYNELIVISPLTASFNAGATFGRFHHLIDTETLAKLEHEKGHYYQKMICDDNVEMISINNIPKYPRNHNVLTNHDSYEYSLNLGSSNSYSKYELTLDDIYVGATFNKLYLYSSQLNKRVIFESNNMYNFLKECNLYRLLREISMESVKCIEPMNDVSIDSFSYSPRIRYKNVILKPAYWKINEMVLPLPKNEEWDQQFLKYQEQFNIPNIVNLVYGDNKLLLNLSLANHRYLLMKEYKKHKRVRLVESFLPQSKNDHVYEIVTPIYKKSSYRGEGHHHHHH”, the “soluble on expression in E. coli” value is recorded as “not soluble”.

For “MSLRFVFDIDGTLCFDGRLIDQTIIDTLLQLQHDGHELIFASARPIRDLLPVLPSVFHQHTLIGANGAMISQQSKISVIKPIHTDTYHHILKIIQKYELDYIIDDDWNYAAQLDAENAIFERLDPHKLASCIDVANIDTPIKIILLNIDPAQITTILDELNKYHQELEMIHHSNEYNIDITAQNINKYTALQYIFDADVKYIAFGNDHNDIFMLQHASSGYIIGPSEAYTHAILKLDKIKHINNNTQAICKVLKSYKEGHHHHHH”, the “soluble on expression in E. coli” value was “soluble”.

With “MSVQLKCDAVNCVYNRSHLCSAEEIEVQGGETTGGDATFCGTFSSKSLGNFVSSLGNMNYSGSLKQAVSAEPIMDPKVHCNAVNCTYNDQRYCHADQVEIRNEVSHTAEELEHHHHHH”, the “soluble on expression in E. coli” value is “soluble”.

“MSWYTSCPKMLLGATAVAVPLGATVFRRESEKSENLLKIKKAKELVETTMAIQGIPGLSIAVSLDGKMVWKSGFGYANLESFAKCTGDSVMRIASISKPITATLAAQCVENGTLDLDEDIRKYLPEFPAKKFKNEDVKITMRQLLSHSAGIRHYATEKKKSETHEDPSNNNTETPEFLSNKPYNSSLDALAIFKNDDLVEKPGSKFSYTTYGLTLAGAVLEKCSGKTYRQLANQLFSDLGMRNTQLDTKEKIVPGRASYYQRNSKNILENCPEVDCSNKFAGGGIISNTTDLLIIANAILHSILSDSKNCLLQRETIRKFLEKQVPVDSKTSTGLGWFLVDGKDLKSIDGNISNSSFFYHTGAAVGASSVLLVNTSSGVCVAILCNLQNTTVLKLGRDIGDLFHGEI”: the “soluble on expression in E. coli” value is listed as “soluble”.

In the case of “MGSDKIHHHHHHTHSVETPYGSVTFTVYGTPKPKRPAIFTYHDVGLNYKSCFQPLFRFGDMQEIIQNFVRVHVDAPGMEEGAPVFPLGYQYPSLDQLADMIPCILQYLNFSTIIGVGVGAGAYILSRYALNHPDTVEGLVLINIDPNAKGWMDWAAHKLTGLTSSIPDMILGHLFSQEELSGNSELIQKYRGIIQHAPNLENIELYWNSYNNRRDLNFERGGETTLKCPVMLVVGDQAPHEDAVVECNSKLDPTQTSFLKMADSGGQPQLTQPGKLTEAFKYFLQG”, the “soluble on expression in E. coli” value is on record as “soluble”.

For “MINSVITQMAEELRKASKVALFSHVSPDGDCIGSMLGIGLALEALGKEVAMFNPDPIPRNLSFLPGVDKITQSMPDPLPETLLFVDCADLQRVQLQREDLPADAVILNLDHHISNQNFGRINWVDSQAAASGELAYALVRRLNVELTQEIAANFYTALLTDTGSFKYANTTAKTHQIAGELMETGISLGDIHHFVFDQTPMVKLELLRRGLNQLQFFAEGQLGMMTLRKQDFEESGAEESLSEGLIDHARTVEGVEVAVLLKEVKPDVVRVSLRSNRWFDVNRIADGFGGGGHQRAAGCTLHLSLEEAKQKVRQIIEEELKLGRSHLEHHHHHH”, the “soluble on expression in E. coli” value is reported as “soluble”.

Consider “MSLERSLSMELVRVTEAAALASARWMGRGKKDEADEAATSAMRDVFDTVPMKGTVVIGEGEMDEAPMLYIGEKLGNGYGPRVDVAVDPLEGTNILASGGWNALTVIAVADHGTLLNAPDMYMQKIAVGPEAVGCIDIEAPVIDNLKAVAKAKNKDVEDVVATILNRERHAKIISELREAGARIKLINDGDVAGAINTAFDHTGVDILFGSGGAPEGVLSAVALKALGGEIIGKLLPQSEEEITRCHKMGLDLSKVLRMEDLVKGDDAIFAATGVTDGELLKGVQFKGSVGTTESLVIRAKSGTVRFVDGRHSLKKKPNLVIRPEGGSHHHHHH”, for which the “soluble on expression in E. coli” value is listed as “soluble”.

On to “MAHHHHHHMTVYPSLFVCHGGGPLPLLRDEGHKMLVDALKSHRKLLENRFGLPKAIVVISAHYETNTPKVGGAERPSLLFDYYGFPEESYKFRYPVPGNAPLAAAIVNALTVGGFHAEMEPERLLDHGVFVPLMIMFPEANIPVVPLSVLRSGDPAEHIRMGKALRPLRSDAVMFIGSGSTMHHFAHFNREGAGRKFGDALTSILCKNEVATLPEDRLKAMERVKTMEGFTEAQPLREHEHLMPLLTLVGAANGNIAEEVASISFGRANVRNYLFTE”, for which the “soluble on expression in E. coli” value is “not soluble”.

For the sequence “GSAGKFIVIFKNDVSEDKIRETKDEVIAEGGTITNEYNMPGMKGFAGELTPQSLTKFQGLQGDLIDSIEEDGIVTTQ”, the “soluble on expression in E. coli” value is on record as “soluble”.

Regarding “SLALSPGNLQKTAAGPDGQPQLAEKAPEKAQVDVPAAGDTAGLQPQSGRSGANINRATLPDGNVVSVYSPRPRDSDGPVLMSGQTYGQDPRMATRPNEELLEETAFGQLPVVGADGLRPMEQYARPWSGARGTRVAIVVGGLGLSQTGSQKAIRDLPPEVTLGFAASGNSLQRWMQDARREGHEILLQIPLEPFGYPGTNPGPDTLLAGDPAKVNIDRLHRSMAKITNYTGVMNYLGGRFLAEQSALEPVMRDIGKRGLLFLDDGSSAQSLSGGIAKAISAPQGFADVLLDGEVTEASILRKLDDLERIARRNGQAIGVASAFDESIAAISKWSREAGGRGIEIVGVSALVSGQAGQ”, the “soluble on expression in E. coli” value is on record as “soluble”.

In the case of “MNIHEYQGKAVLRSYGVSVPNGKVAFTVEEAVEAAKELGTDVCVVKAQIHAGGRGKAGGVKVAKNLDEVRTYAESILGTTLVTHQTGPEGKEVKRLLIEEGCDIKKEYYVGLVLDRATSQVVLMASEEGGTEIEEVAEKTPEKIFKEYIDPAVGLQGFQARRIAFNINIPKELVGQAVKFMMGLYRAFIEKDCSIAEINPLVTTGDGKVMALDAKLNFDSNALYRHKDILELRDLDEEDAKEIEASKYDLNYIPLDGNIGCMVNGAGLAMATMDIIKHYHGDPANFLDVGGGATAEKVTEAFKIILSDKNVKGIFVNIFGGIMKCDVIAEGVIEATKQVGLELPLVVRLEGTNVELGKKILNESGLNIVAAESMTDGAQKIVSLVG”, the “soluble on expression in E. coli” value is given as “not soluble”.

As for “MFKHKKNEARNYSKMRESRYEYGTILKAHAAFVEIVTRPAPHRDNLPFNMSTLSVLIETSSCSWGMLASAHGDRTIGIILRAIVSFCNAHLGQSANNQLLVFAYGRNVDNKMIYSSTRCEDRNASFLVVKRLRELLSSDALTNDATIGAPLGPALAHAFCHMKKDSRVVTADPCDDSLGPQTTSEQSETASEKATNRAVVISITPIMGSEHGSLMNLFFSAAKQSICVDVVSMGDDFTGGILQQAADITGGSFLHAKKPQTLLKILMTNMLTDPTHRAVFSKLSHNSVDYRASCACHHQLVSSGWVCSICLSVLCQYTPICKVCKAAFTIANLPIKPNRKRAIRN”, the “soluble on expression in E. coli” value is recorded as “not soluble”.

Regarding “MALAEEDVHMIIKQVLDEVVGASTQYTHKDSVQWNQKAVEQITKKLVAAGKPYKYVVTSSFLQISSGSGLNVSTISYWNKVTDSSYMYRWEAKTMLAIVYVFAIAI”, the “soluble on expression in E. coli” value is “not soluble”.

On to “MNIREPPDVVIFCELIYGAAITCLKKFFLRDVFKIFITSHKANIDLMDVVIKSFTDSTNSGKLSKAWAHAQNCHTNFYELKNMKKKLKQNILKSVSEMNNIIKKADIDMINNNLKPFLKQMEKLPTKKTVTIGNESFEYNKTASWYN”, for which the “soluble on expression in E. coli” value was “not soluble”.

Turning to “MGSDKIHHHHHHMVRPQRNKKRFILILNGVWNLEVTSKDRPIAVPGSWNEQYQDLCYEEGPFTYKTTFYVPKELSQKHIRLYFAAVNTDCEVFLNGEKVGENHIEYLPFEVDVTGKVKSGENELRVVVENRLKVGGFPSKVPDSGTHTVGFFGSFPPANFDFFPYGGIIRPVLIEFTDHARILDIWVDTSESEPEKKLGKVKVKIEVSEEAVGQEMTIKLGEEEKKIRTSNRFVEGEFILENARFWSLEDPYLYPLKVELEKDEYTLDIGIRTISWDEKRLYLNGKPVFLKGFGKHEEFPVLGQGTFYPLMIKDFNLLKWINANSFRTSHYPYSEEWLDLADRLGILVIDEAPHVGITRYHYNPETQKIAEDNIRRMIDRHKNHPSVIMWSVANEPESNHPDAEGFFKALYETANEMDRTRPVVMVSMMDAPDERTRDVALKYFDIVCVNRYYGWYIYQGRIEEGLQALEKDIEELYARHRKPIFVTEFGADAIAGIHYDPPQMFSEEYQAELVEKTIRLLLKKDYIIGTHVWAFADFKTPQNVRRPILNHKGVFTRDRQPKLVAHVLRRLWSEV”, the “soluble on expression in E. coli” value was “not soluble”.
